Data on one molecule can be found in patent US20200209227A1 (published 2020).

A word on the Kd: it is the free concentration of one partner at which half of the binding sites on the other are occupied at equilibrium, for simple one-to-one binding. High values mean a looser complex, low ones a tighter complex.

The target in this test is T1, Rh5 (UniProt Q8IFM5 25-526).
T1 sequence: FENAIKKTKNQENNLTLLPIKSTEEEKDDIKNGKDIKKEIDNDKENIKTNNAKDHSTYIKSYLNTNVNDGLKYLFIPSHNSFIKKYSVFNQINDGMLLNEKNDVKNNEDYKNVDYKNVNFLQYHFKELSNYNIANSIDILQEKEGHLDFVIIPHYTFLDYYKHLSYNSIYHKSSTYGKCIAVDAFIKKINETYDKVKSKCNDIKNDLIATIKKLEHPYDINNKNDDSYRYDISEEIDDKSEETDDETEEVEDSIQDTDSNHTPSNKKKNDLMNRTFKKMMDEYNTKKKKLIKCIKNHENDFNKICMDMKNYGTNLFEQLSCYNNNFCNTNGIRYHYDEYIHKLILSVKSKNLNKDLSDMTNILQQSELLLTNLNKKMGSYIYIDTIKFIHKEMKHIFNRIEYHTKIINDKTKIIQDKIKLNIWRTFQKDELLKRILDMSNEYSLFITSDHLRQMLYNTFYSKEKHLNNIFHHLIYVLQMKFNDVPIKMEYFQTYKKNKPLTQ
The test can be described thus: BSI, free solution, label-free.

B1: Basigin (receptor)
chain: AAGTVFTTVEDLGSKILLTCSLNDSATEVTGHRWLKGGVVLKEDALPGQKTEFKVDSDDQWGEYSCVFLPEPMGTANIQLHGPPRVKAVKSSEHINEGETAMLVCKSESVPPVTDWAWYKITDSEDKALMNGSESRFFVSSSQGRSELHIENLNMEADPGQYRCNGTSSKGSDQAIITLRVRSH
notes: If it applies, basigin was whole, on human erythrocytes
Molecule B1 yielded a Kd of 1080 nM.
